What was measured:
[1] = target: recombinant mouse CD96-his (788806; Biolegend) (mouse) (UniProt Q3U0X8); assay: SPR (Biacore T200), single-cycle kinetics, mCD96-his captured by anti-His, 1:1 Langmuir fit
[2] = target: recombinant mouse CD226-his (50232-M08H; SinoBiological) (mouse) (UniProt Q8K4F0); assay: SPR (Biacore T200), single-cycle kinetics, mCD226-his captured by anti-His, 1:1 Langmuir fit
[3] = target: recombinant mouse TIGIT-Fc-his (771808; Biolegend) (mouse) (UniProt P86176); assay: SPR (Biacore T200), single-cycle kinetics, mTIGIT-Fc-his captured by anti-His, 1:1 Langmuir fit
Sequence of UniProt P86176 (P86176 29-148 limits assumed): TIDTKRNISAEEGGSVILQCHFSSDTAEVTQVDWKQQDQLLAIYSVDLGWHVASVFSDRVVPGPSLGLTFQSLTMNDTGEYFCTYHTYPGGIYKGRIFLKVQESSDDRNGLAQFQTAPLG

Sequence of UniProt Q3U0X8 (Q3U0X8 22-536 limits assumed): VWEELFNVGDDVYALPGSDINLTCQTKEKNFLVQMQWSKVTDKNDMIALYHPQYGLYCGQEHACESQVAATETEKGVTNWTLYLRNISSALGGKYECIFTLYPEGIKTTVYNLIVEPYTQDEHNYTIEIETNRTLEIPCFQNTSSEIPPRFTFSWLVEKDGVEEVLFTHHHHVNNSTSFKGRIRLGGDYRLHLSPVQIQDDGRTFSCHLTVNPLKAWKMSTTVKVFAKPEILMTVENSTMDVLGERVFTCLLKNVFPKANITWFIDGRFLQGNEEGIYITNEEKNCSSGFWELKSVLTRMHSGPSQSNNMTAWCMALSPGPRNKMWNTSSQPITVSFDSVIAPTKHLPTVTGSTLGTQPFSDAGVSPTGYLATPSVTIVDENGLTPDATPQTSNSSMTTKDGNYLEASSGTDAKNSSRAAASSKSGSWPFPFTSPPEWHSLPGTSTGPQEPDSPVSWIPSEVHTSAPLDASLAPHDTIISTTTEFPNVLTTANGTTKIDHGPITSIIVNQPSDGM
Sequence of UniProt Q8K4F0 (Q8K4F0 19-254 limits assumed, stated change not applied): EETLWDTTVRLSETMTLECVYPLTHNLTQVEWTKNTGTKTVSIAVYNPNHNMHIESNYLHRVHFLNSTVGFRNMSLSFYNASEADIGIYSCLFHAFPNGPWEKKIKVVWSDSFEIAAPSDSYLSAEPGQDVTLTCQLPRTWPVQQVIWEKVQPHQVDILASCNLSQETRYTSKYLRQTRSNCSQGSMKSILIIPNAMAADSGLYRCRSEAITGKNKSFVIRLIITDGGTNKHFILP

## PVR-Fc (786608; Biolegend), full-length mouse PVR ECD-Fc (Fc fusion)
[1]
  Kd: 4.07 nM
  koff: 0.00455 s⁻¹
  kon: 1.17e+06 M⁻¹ s⁻¹
[2]
  Kd: 0.83 nM
[3]
  Kd: 2.26 nM
  koff: 0.0646 s⁻¹
  kon: 2.25e+07 M⁻¹ s⁻¹
